Test results from US20220380473A1, “ANTI-GAL3 ANTIBODIES AND USES THEREOF” (TrueBinding, Inc., priority 2019, published 2022).
Blank lines part the entries; values can stand above or below the molecule they belong to.

How the values were obtained:
[1] = target: T1, interaction between Gal3 and TIM-3 (Mus musculus, UniProt P16110); assay: Blocking ELISA, mouse Gal3 coated plate and mouse TIM-3 Fc; format: binding; conditions: mGal3 coated plate, mouse TIM-3 Fc
T1 construct: purchased BioLegend (mouse Gal3); R&D systems (mouse TIM-3 Fc)
Description: ELISA assays were also performed to test the interaction between Gal3 and TIM-3. 96 well ELISA plates (ThermoFisher Scientific) were coated with mouse Gal3 protein (BioLegend, San Diego, Calif.) in PBS or human Gal9 protein (R&D systems) in PBS or phosphatidylserine (PS) (Sigma) in ethanol and incubated at 4° C. for overnight. The plate was washed three times with TBST and then blocked with PBS buffer containing 2% BSA at room temperature for 1 hour. In FIG. 5A, different anti Gal3 antibodies, i.e. mGal3 polyclonal antibody (R&D systems), mAb IMT001 (also described in WO 2019/023247, hereby expressly incorporated by reference in its entirety), mAb M3/38 (Thermofisher Scientific) (FIG. 5A), were added to well that has been coated with Gal3. The antibodies were incubated for 10 minutes and mouse TIM-3 Fc were then added to the plates and incubated for an additional one-hour incubation. Plates were then washed for three times and followed by incubation with anti-human-IgG-HRP (Jackson ImmunoResearch) for 1 h at room temperature. The color was developed with TMB subtract (GeneTex, Irvine, Calif.) after three time washes with TBST and the reaction was terminated with 1N HCl. The optical density (OD) was read at 450 nm. The results were expressed as the average OD of duplicates±SD. […]

Gal9 binding to TIM-3 = target: T2, Gal9 binding to TIM-3 (Homo sapiens, UniProt O00182); assay: Sugar-dependence ELISA, hGal9 coated plate and mouse TIM-3 Fc
T2 construct: purchased R&D systems

Galectin-3 = Galectin-3 (Homo sapiens, UniProt P17931); assay: SPR (BiacoreT200) binding affinity; conditions: 25° C., read-out: hGal-3 KD
Description: GAL3-binding antibodies were evaluated for their binding affinity by SPR. Kinetics experiments were performed on BiacoreT200 at 25° C. in high performance mode. Ligand proteins, purified antibodies were captured onto a CM5 chip coupled with anti-human Fc or anti-mouse Fc antibody, three antibodies at a time onto flow cell #2, 3, and 4, respectively, while flow cell #1 was used as reference. The analyte Galectin-3 in HBS-EP buffer was injected over all four flow cells at concentrations of 100, 50, 25, 12.5, 6.25, 3.125 and 0 nM at a flow rate of 30 μL/min. The complex was allowed to associate and dissociate for 240 and 300 seconds, respectively. The surfaces were regenerated with a 30 second injection of 10 mM Glycine pH 1.7 (flow rate 30 μL/min). The data were fit to a simple 1:1 interaction model using the global data analysis option available within BiacoreT200 Evaluation software V2.0. The affinity of Gal3 monoclonal antibodies was confirmed to be […] 30 nM for all antibodies studied (Table 24.1). Antibodies with affinity less than 2E-7 were selected for further characterization.

[2] = target: T3, association of GAL3 and TIM3 (Homo sapiens, UniProt P17931); assay: GAL3-TIM3 blocking ELISA (Examples 24, 27); format: binding; conditions: 3 ug/mL antibody
T3 construct: full-length human Galectin-3 protein (Acro Biosystems, GA3-H5129); linker-spaced 6-histidine tag; purchased Acro Biosystems GA3-H5129 (Gal3); TM3-H5229 (TIM-3)
Description: Positively scoring wells were evaluated for the ability to block association of GAL3 and TIM3. To identify GAL3-targeted antibodies with the ability to block the interaction of GAL3 and TIM3, purified GAL3 and TIM3 proteins were incubated in the presence of GAL3-immunization hybridoma supernatants described above, or without antibody, and protein interaction was evaluated by ELISA. Human Galectin-3 protein (Acro Biosystems, GA3-H5129) was diluted in PBS (Corning, 21-030-CM) to a concentration of 3 μg/ml and added to the wells of a 96-well ELISA plate (Thermo Fisher, 44-2404-21). After incubating the plate at 4° C. overnight, the plate was washed three times with PBST (PBS with 0.05% Tween 20 [VWR, 0777]). The plate was then blocked for an hour with 2% BSA (EMD Millipore, 126609) in PBST at room temperature with gentle rocking. Thereafter, the 2% BSA in PBST was discarded and antibody or inhibitor (3-fold dilutions beginning at 20 μg/ml, 60 μg/ml, or 180 μM) in 2% BSA in PBST was added to the wells. Afterwards, 2 μg/ml of human TIM3 (Aero Biosystems, TM3-H5229) in 2% BSA in PBST was added to the antibody or inhibitor in the wells in a 1:1 ratio. The plate was incubated for an hour at room temperature with gentle rocking. Thereafter, the plate was washed three times with PBST, and 0.3 μg/ml of human TIM3 Biotinylated Antibody (R&D Systems, BAF2365) in 2% BSA in PBST was added to the wells. The plate was incubated for an hour with gentle rocking and then washed three times with PBST. Avidin-HRP (1:2000) was then added to the wells. The plate was incubated at room temperature for an hour with gentle rocking and then washed three times with PBST. TMB substrate (Thermo Scientific, 34029) was then added to each well. The reaction was stopped with 1M HCl (JT Baker, 5620-02) and read using a plate reader (Molecular Devices) at absorbance of 450 nm.

hGal3 peptide = assay: Gal3 peptide library ELISA (Example 25); format: binding, human; conditions: hGal3 peptide No. bound
Description: To identify the epitopes to which Gal3 antibodies with and without Gal3-TIM3 blocking activity bound, a library of 20 amino acid peptides representing portions of Gal3, summarized in Table 24.1, was produced and the ability to bind Gal3 antibodies was evaluated by ELISA.
At least 2 μg/ml of hGal3 peptide in 50 μl of PBS or 0.1 μg/ml of full-length human Gal3 protein (GenScript) and human Galectin-3 protein (Acro Biosystems, GA3-H5129) were diluted in PBS (Corning, 21-030-CM) to concentrations of at least 2 μg/ml or 0.1 μg/ml, respectively, and added to the wells of a 96-well ELISA plate (Thermo Fisher, 44-2404-21). After incubating the plate at 4° C. overnight, the plate was washed three times with PBST (PBS with 0.05% Tween 20 [VWR, 0777]). The plate was then blocked for an hour with 2% BSA (EMD Millipore, 126609) in PBST at room temperature with gentle rocking. Thereafter, the 2% BSA in PBST was discarded and human Galectin-3 hybridoma supernatants or antibodies were diluted in 2% BSA in PBST to concentrations of at least 0.1 μg/ml and added to the wells. The plate was incubated for an hour at room temperature with gentle rocking and then washed three times with PBST. Afterwards, Goat Anti-Mouse IgG-HRP (Jackson ImmunoResearch, 115-036-1461) or Goat Anti-Rat IgG HRP (abcam, ab205720) diluted in 2% BSA in PBST (1:4000) were added to the wells. The plate was incubated for 30 minutes to 1 hour at room temperature with gentle rocking and then washed three times with PB ST. TMB substrate (Thermo Scientific, 34029) was then added to each well. The reaction was stopped with 1M HCl (JT Baker, 5620-02) and read using a plate reader (Molecular Devices) at absorbance of 450 nm.

human Gal3-His = human Gal3-His (Homo sapiens, UniProt P17931); assay: Antibody binning by biolayer interferometry (Gator); format: binding; conditions: antibody competition
Description: To determine whether Gal3-binding antibodies with Gal3-TIM3 blocking activity bind to the same or overlapping regions of the Gal3 molecule, antibody binning assays were performed to assess the ability of antibodies to simultaneously bind Gal3. Amine-reactive probes were loaded onto a Gator biosensor (Probe Life, Palo Alto, Calif.), equilibrated in dH20 for 60 seconds, dipped into 100 μl EDC 0.2M/NHS 0.05M activation buffer for 30 seconds, then dipped into a solution of […] human Gal3-His in 10 mM NaOAc buffer, pH 5 until binding was saturated, and quenched in 1 M ethanolamine pH 8.5 for 300 seconds. Following Gal3-His loading, tips were dipped in 20 μg/mL saturating antibody, then successively dipped into 5 μg/mL competing antibody.

T2 sequence (O00182 whole entry): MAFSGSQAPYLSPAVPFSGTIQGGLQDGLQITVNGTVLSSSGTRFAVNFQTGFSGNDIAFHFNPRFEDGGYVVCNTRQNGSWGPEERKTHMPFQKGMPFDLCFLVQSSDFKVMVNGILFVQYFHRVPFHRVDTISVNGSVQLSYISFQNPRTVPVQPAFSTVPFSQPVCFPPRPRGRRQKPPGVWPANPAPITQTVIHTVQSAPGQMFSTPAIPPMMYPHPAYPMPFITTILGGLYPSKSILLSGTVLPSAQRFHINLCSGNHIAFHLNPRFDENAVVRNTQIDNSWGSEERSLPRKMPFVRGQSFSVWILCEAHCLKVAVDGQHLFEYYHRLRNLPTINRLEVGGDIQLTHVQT
Galectin-3, sequence (P17931 whole entry): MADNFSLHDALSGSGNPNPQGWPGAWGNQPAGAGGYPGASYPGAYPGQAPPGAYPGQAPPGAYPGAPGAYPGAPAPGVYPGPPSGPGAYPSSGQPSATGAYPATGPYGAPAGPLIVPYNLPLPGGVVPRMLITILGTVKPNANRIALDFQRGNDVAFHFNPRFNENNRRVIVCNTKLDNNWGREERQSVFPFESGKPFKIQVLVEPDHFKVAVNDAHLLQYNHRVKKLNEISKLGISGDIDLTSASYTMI
human Gal3-His, sequence (P17931 whole entry): as above
T3 sequence (P17931 2-250 limits assumed): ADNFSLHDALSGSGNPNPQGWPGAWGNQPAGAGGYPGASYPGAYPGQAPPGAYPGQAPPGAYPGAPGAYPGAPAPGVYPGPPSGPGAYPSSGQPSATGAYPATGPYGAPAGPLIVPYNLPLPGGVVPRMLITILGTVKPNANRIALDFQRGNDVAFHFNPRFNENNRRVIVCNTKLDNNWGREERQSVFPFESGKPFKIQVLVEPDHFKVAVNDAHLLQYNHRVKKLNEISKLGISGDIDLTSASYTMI
T1 sequence (P16110 2-264 limits assumed): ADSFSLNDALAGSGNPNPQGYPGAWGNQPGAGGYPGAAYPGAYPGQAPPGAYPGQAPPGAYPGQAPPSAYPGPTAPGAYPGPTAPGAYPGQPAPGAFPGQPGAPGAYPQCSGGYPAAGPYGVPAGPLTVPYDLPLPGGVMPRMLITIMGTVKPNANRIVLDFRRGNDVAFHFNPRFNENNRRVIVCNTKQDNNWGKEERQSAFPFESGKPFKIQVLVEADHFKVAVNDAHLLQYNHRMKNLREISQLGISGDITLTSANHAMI

block of Gal3 binding to TIM-3 [1]: minimal | reduction in signal, Gal9-TIM-3 binding (Gal9 binding to TIM-3; 25 mM α-Lactose present vs absent): more than 10 fold | block of Gal9 binding to TIM-3 (Gal9 binding to TIM-3; 25 mM α-Lactose, hGal9 coated plate): blocked
Molecule: OC[C@H]1O[C@@H](O[C@H]2[C@H](O)[C@@H](O)[C@@H](O)O[C@@H]2CO)[C@H](O)[C@@H](O)[C@H]1O [lactose, α-Lactose, reference compound]

Kd (Galectin-3): 4.13 nM | GAL3-TIM3 Blocking @ 3 ug/mL [2]: 0% | Bin (human Gal3-His): 11
B1: 24D12.2H9: murine anti-Gal3 antibody (antibody, V domains shown)
VH: QVQLKQSGPGLVQPSQSLSITCTVSGFSLTSYGVHWVRQAPGKGLEWLGVIWSGGSTDYNAAFMSRLSISKDNSKSQVFFKMNSLQADDTAIYYCAKSPDGYDVAWFGYWGQGTLVTVSA
VL: DIVMTQSHKFMSTSVGDRVSITCKASQDVRTAVAWYQQKPGQSPKLLIYWASTRHTGVPDRFTGSGSGTDFTLTLSNVQSEDLADYFCQQYSSYPWTFGGGTKLEIK
modifications: VH of 24D12.2H9; VL of 24D12.2H9
notes: murine anti-Gal3 antibody
Epitope Mapping (hGal3 peptide): Non-linear
